Measured values reported in patent publication US20110055976.

System: SUMO1-trypsinogen fusion, chloroplast-targeted, extracted from N. benthamiana leaves and refolded
Sequence (chain, as listed by the source): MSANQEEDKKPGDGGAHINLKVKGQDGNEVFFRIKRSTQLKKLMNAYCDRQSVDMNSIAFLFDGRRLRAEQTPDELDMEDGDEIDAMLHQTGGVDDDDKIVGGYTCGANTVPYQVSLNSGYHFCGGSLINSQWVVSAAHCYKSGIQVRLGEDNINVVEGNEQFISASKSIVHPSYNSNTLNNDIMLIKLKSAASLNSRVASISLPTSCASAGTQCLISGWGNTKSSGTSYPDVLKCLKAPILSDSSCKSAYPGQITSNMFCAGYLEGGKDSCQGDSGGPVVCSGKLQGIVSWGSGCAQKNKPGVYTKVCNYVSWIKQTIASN

**Q.** For enterokinase (Sigma, cat. no. E0885), which “kinetics of BAPNA cleavage (absorption at 405 nm) after enterokinase treatment of the folding reaction” value is on record?
**A.** The value was “refolded and enterokinase-treated SUMO1-trypsinogen fusion produces active trypsin capable of digesting the substrate BAPNA”.
